Source: US20210309732A1 (ELIXIRON IMMUNOTHERAPEUTICS HONG KONG, published 2021)

Target: T1, recombinant human GM-CSF (human, UniProt P04141 18-144)
T1 construct: also called rhGM-CSF; CSF2
Assay: ELISA on coated rhGM-CSF, UBA relative to 1D2
Excerpt: Some of the residues in the CDRs are essential for epitope binding affinity and/or specificity. A number of computational methods were developed to detect these functional residues, generally known as ‘specificity-determining resides’ (SDRs). […] Based on the analysis, 7 amino acid residues in VH and 3 amino acid residues in VL were selected as the SDRs. The residues are labeled X₁ to X₁₀ for the ease of reference. The SDRs on VH are: Heavy chain D31 (HD31) (X₁), HK32 (X₂), HK54(X₃), HR100 (X₄), HY102 (X₅), HY103 (X₆) and HQ105 (X₇). The SDRs on VL are Light chain V32 (LV32) (X₈), LP94 (X₉) and LV95 (X₁₀). The SDRs were subsequently mutated by site-directed mutagenesis to other amino acids to generate mutant VH or VL clones. HEK293 cells were co-transfected with a vector encoding a mutant VH paired with a vector encoding a wild type VL or a vector encoding a wild type VH paired with a vector encoding a mutant VL. The antibody clones were harvested from the culture medium. The binding affinity of each antibody clone to human GM-CSF was tested by ELISA. The ELISA was done according to the following procedures. ELISA plate was coated with 50 μl of rhGM-CSF at 1 μg/mL. The plate was washed with 200 μl PBST for three times, followed by blocking with 1% BSA for 1 hour at room temperature. The antibody clones to be tested were diluted at 1:12000. 100 μl of the diluted antibodies were added to the cell at 100 μl/well. The plate was incubated at room temperature for 1 hour. The plate was then washed and incubated with 1:5000 diluted goat-anti-human secondary antibody conjugated with HRP at room temperature for one hour. The ELISA assay was developed with 100 μl developing buffer containing H₂O₂-Amplx Red per well in the dark for 5 min and the fluorescence intensity was read at Ex.530/Em.590 nm, with cutoff at 570 nm. The Unit Binding Activity (UBA) of each sample was calculated as the fluorescence signal/antibody clone dilution factor.

T1 sequence (P04141 18-144 limits assumed): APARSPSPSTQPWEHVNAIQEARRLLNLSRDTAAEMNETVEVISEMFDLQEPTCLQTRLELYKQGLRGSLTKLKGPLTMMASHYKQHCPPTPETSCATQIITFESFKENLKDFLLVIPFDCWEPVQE

Binder | binding affinity % of 1D2
1D2 SDR mutant HR100C (antibody, IgG1, V domains shown, also called X4 C) VH: QVQLVQSGAEVKKPGASVKVSCEASGYTFTDKYLHWVRQAPGQGLEWMAWINPKSGGTFYAQNFKGRVTVTRDTSINTAYLELTSLRLDDTSTYYCARGCDYYDQGAADLWGQGTMVTVSS VL: DIQLTQSPSSLSASVGDRVTITCRASQGINSVLAWYQQKPGKAPKLLLYAASKLESGVPSRFSGSGSGTDYTLTISSLQPEDFGTYYCQQYYSPVRTFGQGTKVEIKR | 89%
1D2 SDR mutant HY102F (antibody, IgG1, V domains shown, also called X5 F) VH: QVQLVQSGAEVKKPGASVKVSCEASGYTFTDKYLHWVRQAPGQGLEWMAWINPKSGGTFYAQNFKGRVTVTRDTSINTAYLELTSLRLDDTSTYYCARGRDFYDQGAADLWGQGTMVTVSS VL: DIQLTQSPSSLSASVGDRVTITCRASQGINSVLAWYQQKPGKAPKLLLYAASKLESGVPSRFSGSGSGTDYTLTISSLQPEDFGTYYCQQYYSPVRTFGQGTKVEIKR | 71%
1D2 SDR mutant HR100S (antibody, IgG1, V domains shown, also called X4 S) VH: QVQLVQSGAEVKKPGASVKVSCEASGYTFTDKYLHWVRQAPGQGLEWMAWINPKSGGTFYAQNFKGRVTVTRDTSINTAYLELTSLRLDDTSTYYCARGSDYYDQGAADLWGQGTMVTVSS VL: DIQLTQSPSSLSASVGDRVTITCRASQGINSVLAWYQQKPGKAPKLLLYAASKLESGVPSRFSGSGSGTDYTLTISSLQPEDFGTYYCQQYYSPVRTFGQGTKVEIKR | 72%
1D2 SDR mutant HY102L (antibody, IgG1, V domains shown, also called X5 L) VH: QVQLVQSGAEVKKPGASVKVSCEASGYTFTDKYLHWVRQAPGQGLEWMAWINPKSGGTFYAQNFKGRVTVTRDTSINTAYLELTSLRLDDTSTYYCARGRDLYDQGAADLWGQGTMVTVSS VL: DIQLTQSPSSLSASVGDRVTITCRASQGINSVLAWYQQKPGKAPKLLLYAASKLESGVPSRFSGSGSGTDYTLTISSLQPEDFGTYYCQQYYSPVRTFGQGTKVEIKR | 86%
1D2 SDR mutant HY102G (antibody, IgG1, V domains shown, also called X5 G) VH: QVQLVQSGAEVKKPGASVKVSCEASGYTFTDKYLHWVRQAPGQGLEWMAWINPKSGGTFYAQNFKGRVTVTRDTSINTAYLELTSLRLDDTSTYYCARGRDGYDQGAADLWGQGTMVTVSS VL: DIQLTQSPSSLSASVGDRVTITCRASQGINSVLAWYQQKPGKAPKLLLYAASKLESGVPSRFSGSGSGTDYTLTISSLQPEDFGTYYCQQYYSPVRTFGQGTKVEIKR | 89%
1D2 SDR mutant HY102S (antibody, IgG1, V domains shown, also called X5 S) VH: QVQLVQSGAEVKKPGASVKVSCEASGYTFTDKYLHWVRQAPGQGLEWMAWINPKSGGTFYAQNFKGRVTVTRDTSINTAYLELTSLRLDDTSTYYCARGRDSYDQGAADLWGQGTMVTVSS VL: DIQLTQSPSSLSASVGDRVTITCRASQGINSVLAWYQQKPGKAPKLLLYAASKLESGVPSRFSGSGSGTDYTLTISSLQPEDFGTYYCQQYYSPVRTFGQGTKVEIKR | 104%
1D2 SDR mutant HR100L (antibody, IgG1, V domains shown, also called X4 L) VH: QVQLVQSGAEVKKPGASVKVSCEASGYTFTDKYLHWVRQAPGQGLEWMAWINPKSGGTFYAQNFKGRVTVTRDTSINTAYLELTSLRLDDTSTYYCARGLDYYDQGAADLWGQGTMVTVSS VL: DIQLTQSPSSLSASVGDRVTITCRASQGINSVLAWYQQKPGKAPKLLLYAASKLESGVPSRFSGSGSGTDYTLTISSLQPEDFGTYYCQQYYSPVRTFGQGTKVEIKR | 69%
1D2 SDR mutant HR100P (antibody, IgG1, V domains shown, also called X4 P) VH: QVQLVQSGAEVKKPGASVKVSCEASGYTFTDKYLHWVRQAPGQGLEWMAWINPKSGGTFYAQNFKGRVTVTRDTSINTAYLELTSLRLDDTSTYYCARGPDYYDQGAADLWGQGTMVTVSS VL: DIQLTQSPSSLSASVGDRVTITCRASQGINSVLAWYQQKPGKAPKLLLYAASKLESGVPSRFSGSGSGTDYTLTISSLQPEDFGTYYCQQYYSPVRTFGQGTKVEIKR | 101%
1D2 SDR mutant HR100T (antibody, IgG1, V domains shown, also called X4 T) VH: QVQLVQSGAEVKKPGASVKVSCEASGYTFTDKYLHWVRQAPGQGLEWMAWINPKSGGTFYAQNFKGRVTVTRDTSINTAYLELTSLRLDDTSTYYCARGTDYYDQGAADLWGQGTMVTVSS VL: DIQLTQSPSSLSASVGDRVTITCRASQGINSVLAWYQQKPGKAPKLLLYAASKLESGVPSRFSGSGSGTDYTLTISSLQPEDFGTYYCQQYYSPVRTFGQGTKVEIKR | 93%
1D2 SDR mutant HR100I (antibody, IgG1, V domains shown, also called X4 I) VH: QVQLVQSGAEVKKPGASVKVSCEASGYTFTDKYLHWVRQAPGQGLEWMAWINPKSGGTFYAQNFKGRVTVTRDTSINTAYLELTSLRLDDTSTYYCARGIDYYDQGAADLWGQGTMVTVSS VL: DIQLTQSPSSLSASVGDRVTITCRASQGINSVLAWYQQKPGKAPKLLLYAASKLESGVPSRFSGSGSGTDYTLTISSLQPEDFGTYYCQQYYSPVRTFGQGTKVEIKR | 80%
1D2 SDR mutant HR100G (antibody, IgG1, V domains shown, also called X4 G) VH: QVQLVQSGAEVKKPGASVKVSCEASGYTFTDKYLHWVRQAPGQGLEWMAWINPKSGGTFYAQNFKGRVTVTRDTSINTAYLELTSLRLDDTSTYYCARGGDYYDQGAADLWGQGTMVTVSS VL: DIQLTQSPSSLSASVGDRVTITCRASQGINSVLAWYQQKPGKAPKLLLYAASKLESGVPSRFSGSGSGTDYTLTISSLQPEDFGTYYCQQYYSPVRTFGQGTKVEIKR | 125%
1D2 SDR mutant HR100M (antibody, IgG1, V domains shown, also called X4 M) VH: QVQLVQSGAEVKKPGASVKVSCEASGYTFTDKYLHWVRQAPGQGLEWMAWINPKSGGTFYAQNFKGRVTVTRDTSINTAYLELTSLRLDDTSTYYCARGMDYYDQGAADLWGQGTMVTVSS VL: DIQLTQSPSSLSASVGDRVTITCRASQGINSVLAWYQQKPGKAPKLLLYAASKLESGVPSRFSGSGSGTDYTLTISSLQPEDFGTYYCQQYYSPVRTFGQGTKVEIKR | 94%
1D2 SDR mutant HY102N (antibody, IgG1, V domains shown, also called X5 N) VH: QVQLVQSGAEVKKPGASVKVSCEASGYTFTDKYLHWVRQAPGQGLEWMAWINPKSGGTFYAQNFKGRVTVTRDTSINTAYLELTSLRLDDTSTYYCARGRDNYDQGAADLWGQGTMVTVSS VL: DIQLTQSPSSLSASVGDRVTITCRASQGINSVLAWYQQKPGKAPKLLLYAASKLESGVPSRFSGSGSGTDYTLTISSLQPEDFGTYYCQQYYSPVRTFGQGTKVEIKR | 83%
1D2 SDR mutant HR100E (antibody, IgG1, V domains shown, also called X4 E) VH: QVQLVQSGAEVKKPGASVKVSCEASGYTFTDKYLHWVRQAPGQGLEWMAWINPKSGGTFYAQNFKGRVTVTRDTSINTAYLELTSLRLDDTSTYYCARGEDYYDQGAADLWGQGTMVTVSS VL: DIQLTQSPSSLSASVGDRVTITCRASQGINSVLAWYQQKPGKAPKLLLYAASKLESGVPSRFSGSGSGTDYTLTISSLQPEDFGTYYCQQYYSPVRTFGQGTKVEIKR | 92%
1D2 SDR mutant HY102I (antibody, IgG1, V domains shown, also called X5 I) VH: QVQLVQSGAEVKKPGASVKVSCEASGYTFTDKYLHWVRQAPGQGLEWMAWINPKSGGTFYAQNFKGRVTVTRDTSINTAYLELTSLRLDDTSTYYCARGRDIYDQGAADLWGQGTMVTVSS VL: DIQLTQSPSSLSASVGDRVTITCRASQGINSVLAWYQQKPGKAPKLLLYAASKLESGVPSRFSGSGSGTDYTLTISSLQPEDFGTYYCQQYYSPVRTFGQGTKVEIKR | 64%
1D2 SDR mutant HR100V (antibody, IgG1, V domains shown, also called X4 V) VH: QVQLVQSGAEVKKPGASVKVSCEASGYTFTDKYLHWVRQAPGQGLEWMAWINPKSGGTFYAQNFKGRVTVTRDTSINTAYLELTSLRLDDTSTYYCARGVDYYDQGAADLWGQGTMVTVSS VL: DIQLTQSPSSLSASVGDRVTITCRASQGINSVLAWYQQKPGKAPKLLLYAASKLESGVPSRFSGSGSGTDYTLTISSLQPEDFGTYYCQQYYSPVRTFGQGTKVEIKR | 74%
1D2 SDR mutant HR100Q (antibody, IgG1, V domains shown, also called X4 Q) VH: QVQLVQSGAEVKKPGASVKVSCEASGYTFTDKYLHWVRQAPGQGLEWMAWINPKSGGTFYAQNFKGRVTVTRDTSINTAYLELTSLRLDDTSTYYCARGQDYYDQGAADLWGQGTMVTVSS VL: DIQLTQSPSSLSASVGDRVTITCRASQGINSVLAWYQQKPGKAPKLLLYAASKLESGVPSRFSGSGSGTDYTLTISSLQPEDFGTYYCQQYYSPVRTFGQGTKVEIKR | 57%
1D2 SDR mutant HY102A (antibody, IgG1, V domains shown, also called X5 A) VH: QVQLVQSGAEVKKPGASVKVSCEASGYTFTDKYLHWVRQAPGQGLEWMAWINPKSGGTFYAQNFKGRVTVTRDTSINTAYLELTSLRLDDTSTYYCARGRDAYDQGAADLWGQGTMVTVSS VL: DIQLTQSPSSLSASVGDRVTITCRASQGINSVLAWYQQKPGKAPKLLLYAASKLESGVPSRFSGSGSGTDYTLTISSLQPEDFGTYYCQQYYSPVRTFGQGTKVEIKR | 68%
